{"source": "patent US6972178B1", "about": "“Drug screening using a proline-rich nuclear receptor co-regulatory protein/nuclear receptor co-expression system” (City of Hope, priority 1999, dated 2005)", "molecules": {"B1": {"name": "human lamin C protein (irrelevant protein, DNA-BD/control plasmid) (other, UniProt P04386 1-147, looked up)", "chain": "MKLLSSIEQACDICRLKKLKCSKEKPKCAKCLKNNWECRYSPKTKRSPLTRAHLTEVESRLERLEQLFLLIFPREDLDMILKMDSLQDIKALLTGLFVQDNVNKDAVTDRLASVETDMPLTLRQHRISATSSSEESSNKGQRQLTVSSEEVVSREVSGIKAAYEAELGDARKTLDSVAKERARLQLELSKVREEFKELKARNTKKEGDLIAAQARLKDLEALLNSKEAALSTALSEKRTLEGELHDLRGQVAKLEAALGEAKKQLQDEMLRRVDAENRLQTMKEELDFQKNIYSEELRETKRRHETRLVEID", "notes": "that lamin C is the DNA-BD control fusion is inferred from these two statements"}, "B2": {"name": "Gal4 activation domain alone (other, UniProt P04386 768-881, looked up)", "chain": "ANFNQSGNIADSSLSFTFTNSSNGPNLITTQTNSQALSQPIASSNVHDNFMNNEITASKIDDGNNSKPLSPGWTDQTAYNAFGITTGMFNTTTMDDVYNYLFDDEDTPPNPKKE", "notes": "Control of the yeast two-hybrid assays; also called Gal4AD; AD vector alone"}, "B3": {"name": "VP16 activation domain alone (other)", "chain": "STAPPTDVSLGDELHLDGEDVAMAHADALDDFDLDMLGDGDSPGP", "notes": "Control of the mammalian two-hybrid assay; also called VP16 AD"}}, "key": {"SF1 [1]": {"target": "T1, SF1 (Bos taurus, UniProt Q04752)", "T1 sequence (Q04752 whole entry, the tested form may be a part)": "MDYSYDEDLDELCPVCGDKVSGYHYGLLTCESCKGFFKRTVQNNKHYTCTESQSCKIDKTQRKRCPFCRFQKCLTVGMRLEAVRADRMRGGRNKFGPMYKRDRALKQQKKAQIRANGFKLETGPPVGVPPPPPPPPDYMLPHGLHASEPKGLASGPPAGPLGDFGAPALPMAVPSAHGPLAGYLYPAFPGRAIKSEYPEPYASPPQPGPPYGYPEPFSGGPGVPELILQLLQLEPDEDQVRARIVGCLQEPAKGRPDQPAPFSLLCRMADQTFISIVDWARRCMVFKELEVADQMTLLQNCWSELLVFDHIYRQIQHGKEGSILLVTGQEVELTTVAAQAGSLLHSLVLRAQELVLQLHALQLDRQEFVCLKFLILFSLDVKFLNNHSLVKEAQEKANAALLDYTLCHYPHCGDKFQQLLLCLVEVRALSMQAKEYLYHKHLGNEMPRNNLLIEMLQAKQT", "assay": "Yeast two-hybrid assay (HIS3 / β-galactosidase reporter)", "assay_type": "cell-based, bovine", "design": "The coding region for the wild type bovine SF1 was first subcloned into a yeast expression vector, pGBT9; expressed in transfected cells; host or cells: yeast (Y187, or Y187 x CG1945 diploids)", "conditions": "no ligand", "description": "(§1) The protein-protein interactions between the full-length PNRC or PNRC fragments and SF1, ERRα1, and several other nuclear receptors were analyzed by yeast two-hybrid assays. The yeast two-hybrid assay was used to test if PNRC also interacts with other members of the nuclear receptor superfamily. pGBT9-ERRα-1 yeast expression plasmid was prepared by inserting the PCR-amplified ERRA-1 coding region into pGBT9 through an EcoRI site. To construct the plasmid pGBT9-ER274-595, the coding sequence from amino acids 274 to 595 (LBD) of ERα was amplified by PCR with the sense primer 5′-[…]-3′ (SEQ ID NO:1) and antisense primer 5′-[…]-3′ (SEQ ID NO:2) and cloned into the EcoRI/,SalI site of the pGBT9 yeast expression plasmid. pSG5-GRIP1 and several yeast expression plasmids coding for fusion proteins of Gal4-DBD and HBDs of AR, GR, PR, TR, RAR, and RXR in pGBT9 vector were kindly provided by Dr. Michael R. Stallcup (University of Southern California, Los Angeles, Calif.) (Voegel et al., 1996; Hong et al., 1996; Ding et al., 1998). The yeast mating approach was used in yeast two-hybrid assays to study protein-protein interactions as described in Clontech's protocol. Briefly, pGBT9 (DNA-BD vector only), pGBT9/target plasnmids for SF1, ERRα1, and other HBDs of nuclear receptors, and DNA-BD/control plasmids (as negative control) were introduced into the reporter strain Y187, and the AD vector alone or wild type PNRC and its deleted fragments-containing pACT2 derivatives were used to transform yeast strain CG1945. The yeast mating was performed by picking one colony from each type and growing both colonies in liquid YPD medium with or without a proper ligand at the following concentrations: 100 nM of estradiol for ER; 10 μM of deoxycorticosterone for GR; 100 nM of dihydrotestosterone for AR; 500 nM of progesterone for PR; 10 μM of T3 for TR; 10 μM of all-trans-retinoic acid for RAR; and 10 μM of 9-cis-retinoic acid for RXR. The same amount of an aliquot of the mating culture was spread on both SD/-Leu/-Trp plates to select diploid strains bearing both plasmids and SD/-Leu/-Trp/-His/+3-AT plates to score the growth of the diploid cells that express the two interacting target proteins. The His3 positive colonies were further analyzed for β-galactosidase activity by liquid β-galactosidase activity measurement as essentially described in the protocol.\n(§2) Yeast strains Y187 expressing the Gal4DB fusion to the nuclear receptors and CG1945expressing Gal4AD alone or Gal4AD-PNRC fusion protein were mated by co-culturing, and selected for the presence of both two-hybrid plasmids. The expression of interacting hybrid proteins in yeast diploids was analyzed to determine if there was induction of HIS3 expression as shown in FIG. 1A and LacZ expression as shown in FIGS. 1B and 1C. […] As shown in FIGS. 1A-C, PNRC also interacted specifically with all seven nuclear receptor HBDs, including ER, AR, GR, TR, PR, RAR and RXR, and these interactions were completely ligand-dependent. […] However, no interactions occurred either between PNRC and an irrelevant protein such as human lamin C protein or between nuclear receptors and Gal4activation domain alone."}, "SF1 [2]": {"target": "T1, SF1", "assay": "GST pull-down binding assay", "design": "The coding region for the wild type bovine SF1 was first subcloned into a yeast expression vector, pGBT9; expressed in transfected cells; host or cells: yeast (Y187, or Y187 x CG1945 diploids); species or system bovine", "conditions": "GST fusion on glutathione Sepharose beads, 2 hour at 4° C.", "description": "To further confirm the interaction between PNRC and SF1 which was detected in both the yeast and the mammalian two-hybrid assays, a GST pull-down binding assay was performed to study the direct binding between PNRC and SF1 in vitro. The PNRC cDNA fragments were generated by PCR and inserted into E. coli expression vector pGEX2TK (Pharnacia) through a BamHI site to express GST-PNRC wild type and deletion mutants fusion proteins. Wild type bovine SF1 cDNA in pSG5 vector was translated in vitro in the presence of [^35S]methionine using the TNT Coupled Reticulocyte Lysate System (Promega, Madison, Wis.). GST and deleted PNRC fusion proteins, GST-PNRC270-327 and GST-PNRC278-300, were prepared using the affinity matrix Glutathione Sepharose 4B (Pharmacia) according to the supplier's instructions. The washed beads containing about 10 μg GST fusion protein were incubated for 2 hour at 4° C. with 4 μl in vitro translated, [^35S]methionine-labeled SF1 in a total volume of 150 μl incubation buffer (50 mM Kpi, pH 7.4, 100 mM NaCl, 1 mM MgCl2, 10% glycerol, 0.1% Tween 20, 1.5% BSA) (Treuter et al., 1998). […]\nPNRC fragments, including PNRC270-327 and PNRC278-300 were expressed as fusion proteins with glutathione S-transferase (GST) in E. coli BL21, purified with glutathione Sepharose 4B beads, and tested for their ability to bind in vitro translated [^35S]methionine-labeled SF1 in pull-down assays."}, "SF1 [3]": {"target": "T1, SF1", "assay": "Mammalian two-hybrid assay in SK-BR-3 cells (CAT reporter)", "assay_type": "cell-based, bovine", "design": "expressed in transfected cells; host or cells: SK-BR-3", "description": "The Mammalian MatchMaker two-hybrid assay system (Clontech) was used to confirm the interaction between PNRC and SF1 that was identified in the yeast assays. Because the assays are performed in mammalian cells, proteins are more likely to be in their native conformations, and the results are therefore more likely to represent biologically significant interactions. SK-BR-3 breast cancer cells were cotransfected with three expression plasmids, including pM-SF1 for Gal4 DNA-DB/SF1 fusion protein, pVP16-PNRC for VP16AD-PNRC fusion protein, and a third vector, pG5CAT, to provide the Gal4 DNA-binding site, a promoter, and the CAT reporter gene.\nA set of plasmids, named pM-SF1, pVP16-PNRC, pVP16-PNRC270-327, and pVP16-PNRC278-300, for mammalian two-hybrid assays were prepared as follows: SF1 cDNA fragment was excised from pGBT9-SF1 and inserted in frame into Gal4 DNA-binding domain vector pM (Clontech) through an EcoRI site. PCR was used to generate PNRC full length coding region as well as the above mentioned deleted fragments with BclI at both ends. The PCR products were digested with BclI and inserted in proper reading frame into a pVP16 activation domain vector (Clontech) at a BamHI site. Mammalian two-hybrid assays in SK-BR-3 cells were performed according to the procedures described in the Clontech protocol (PT3002-1)."}, "RAR HBD": {"test_system": "RAR HBD", "assay": "Yeast two-hybrid assay (HIS3 / β-galactosidase reporter)", "assay_type": "cell-based", "conditions": "10 μM of all-trans-retinoic acid", "description": "as §1, §2"}, "TR HBD": {"test_system": "TR HBD", "assay": "Yeast two-hybrid assay (HIS3 / β-galactosidase reporter)", "assay_type": "cell-based", "conditions": "10 μM of T3", "description": "as §1, §2"}, "PR HBD": {"test_system": "PR HBD", "sequence (P06401 679-933 limits assumed)": "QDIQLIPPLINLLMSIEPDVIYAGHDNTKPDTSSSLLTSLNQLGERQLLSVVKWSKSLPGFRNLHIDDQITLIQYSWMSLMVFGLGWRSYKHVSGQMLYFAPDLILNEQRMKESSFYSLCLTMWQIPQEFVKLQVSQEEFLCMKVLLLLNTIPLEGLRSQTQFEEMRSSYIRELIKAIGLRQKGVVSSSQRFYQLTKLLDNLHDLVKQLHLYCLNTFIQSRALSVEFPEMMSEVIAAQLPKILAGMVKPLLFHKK", "assay": "Yeast two-hybrid assay (HIS3 / β-galactosidase reporter)", "assay_type": "cell-based", "conditions": "500 nM of progesterone", "description": "as §1, §2"}, "RXR HBD": {"test_system": "RXR HBD", "assay": "Yeast two-hybrid assay (HIS3 / β-galactosidase reporter)", "assay_type": "cell-based", "conditions": "10 μM of 9-cis-retinoic acid", "description": "as §1, §2"}, "[4]": {"target": "T2, Gal4AD-PNRC fusion protein (full-length proline-rich nuclear receptor co-regulatory protein) (human, UniProt Q12796 1-327)", "T2 construct": "Yeast two-hybrid prey; also called wild type PNRC in pACT2; B4-2", "T2 sequence (Q12796 whole entry, the tested form may be a part)": "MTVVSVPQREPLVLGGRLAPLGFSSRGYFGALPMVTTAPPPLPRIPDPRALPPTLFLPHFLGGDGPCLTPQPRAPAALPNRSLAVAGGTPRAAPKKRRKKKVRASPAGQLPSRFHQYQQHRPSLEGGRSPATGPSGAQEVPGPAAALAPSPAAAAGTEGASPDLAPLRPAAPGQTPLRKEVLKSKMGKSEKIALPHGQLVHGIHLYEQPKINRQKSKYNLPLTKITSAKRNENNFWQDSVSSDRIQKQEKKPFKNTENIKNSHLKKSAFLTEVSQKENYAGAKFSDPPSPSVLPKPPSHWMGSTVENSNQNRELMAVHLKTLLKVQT", "assay": "yeast two-hybrid (HIS3 and LacZ reporters)"}, "[5]": {"target": "Gal4DBD-ERRα1 fusion protein (estrogen related receptor α-1, pGBT9-ERRα-1) (UniProt P04386 1-147; P11474 1-423)", "assay": "yeast two-hybrid (HIS3 and LacZ reporters)"}, "[6]": {"target": "T3, Gal4DBD fusion of ERα ligand-binding domain, amino acids 274 to 595 (pGBT9-ER274-595) (UniProt P04386 1-147; P03372 274-595)", "T3 construct": "Tested with 100 nM estradiol; also called ER HBD", "assay": "yeast two-hybrid (HIS3 and LacZ reporters)"}, "[7]": {"target": "T4, Gal4DBD-SF1 fusion protein (bovine steroidogenic factor 1, pGBT9-SF1) (bovine, UniProt P04386 1-147; Q04752 1-461)", "T4 construct": "Yeast two-hybrid bait; whole wild type coding region; also called DBDGal4-SF1", "assay": "yeast two-hybrid (HIS3 and LacZ reporters)"}, "[8]": {"target": "T5, Gal4 DNA-DB/SF1 fusion protein (pM-SF1) (bovine, UniProt P04386 1-147; Q04752 1-461)", "T5 construct": "Mammalian two-hybrid construct, expressed in SK-BR-3 cells", "assay": "mammalian two-hybrid, CAT reporter, SK-BR-3 cells"}}, "note": "“Also recorded” adds a separate entry of the source. Ends that are not written are not given here."}
{"molecule": "PNRC301-327: PNRC fragment aa 301-327 containing the NR box, Gal4AD fusion protein", "values": [{"measurement": "interaction with SF1", "setting": "SF1 [1]", "result": "could not interact with SF1"}]}
{"molecule": "PNRC/270-327: C-terminal PNRC fragment aa 270-327, expressed as Gal4AD, VP16 or GST fusion protein", "values": [{"measurement": "interaction with SF1", "setting": "SF1 [1]", "result": "about the same; also recorded: stronger than the interaction between PNRC/278-300 and SF1"}, {"measurement": "binding of in vitro translated 35S-labeled SF1", "setting": "SF1 [2]", "result": "found to bind SF1"}]}
{"molecule": "PNRC/270-317: PNRC fragment aa 270-317 lacking the NR box, Gal4 AD fusion protein", "values": [{"measurement": "interaction with SF1", "setting": "SF1 [1]", "result": "about the same"}]}
{"molecule": "NR box: NR box-like sequence LKTLL (aa 319-323; SEQ ID NO:4) of PNRC as fusion protein with Gal4 AD (not fully specified; UniProt Q12796 319-323, looked up, fragment)", "values": [{"measurement": "interaction with SF1", "setting": "SF1 [1]", "result": "No interaction was observed"}]}
{"molecule": "PNRC278-300: 23-amino acid PNRC region aa 278-300 (SEQ ID NO:9), expressed as Gal4AD, VP16 or GST fusion protein (NYAGAKFSDPPSPSVLPKPPSHW; listed as Homo sapiens)", "values": [{"measurement": "interaction with SF1", "setting": "SF1 [1]", "result": "able to interact with SF1"}, {"measurement": "interaction with SF1 in mammalian two-hybrid assay", "setting": "SF1 [3]", "result": "retain most of the interaction of full length PNRC to SF1"}, {"measurement": "binding of in vitro translated 35S-labeled SF1", "setting": "SF1 [2]", "result": "found to bind SF1"}]}
{"molecule": "PNRC278-300 (mutant): PNRC278-300 carrying double mutations P287A and P290A (S-D-A-P-S-A-S, SEQ ID NO:6) (SDAPSAS; MUTAGEN (3) This residue has been changed from a proline.; listed as Homo sapiens)", "values": [{"measurement": "interaction with RAR", "setting": "RAR HBD", "result": "almost completely abolished the interactions"}, {"measurement": "interaction with TR", "setting": "TR HBD", "result": "almost completely abolished the interactions"}, {"measurement": "interaction with PR", "setting": "PR HBD", "result": "almost completely abolished the interactions"}, {"measurement": "interaction with RXR", "setting": "RXR HBD", "result": "almost completely abolished the interactions"}, {"measurement": "interaction with SF1", "setting": "SF1 [1]", "result": "almost completely abolished the interactions"}]}
{"molecule": "B1", "values": [{"measurement": "binding result", "setting": "[4]", "result": "no binding"}]}
{"molecule": "B2", "values": [{"measurement": "binding result", "setting": "[5]", "result": "no binding"}, {"measurement": "binding result", "setting": "[6]", "result": "no binding"}, {"measurement": "binding result", "setting": "[7]", "result": "no binding"}]}
{"molecule": "B3", "values": [{"measurement": "binding result", "setting": "[8]", "result": "no binding"}]}
